This is an account of results in patent US8853149.

First the molecules themselves.
B1: cyclic III peptide 3 (KLKLK-T1-MVVSA-T1) (peptide)
peptide: KLKLKMVVSA
modifications: here or on the partner: head-to-tail cyclic; two T1 linkers (NH2CH2CH2N(SO2Me)CH2COOH) join the strands
B2: cyclic III peptide 6 (KLKLK-T1-MAVSW-T1) (peptide)
peptide: KLKLKMAVSW
modifications: here or on the partner: head-to-tail cyclic; two T1 linkers (NH2CH2CH2N(SO2Me)CH2COOH) join the strands
B3: cyclic III peptide 4 (KLKLK-T1-MVVAW-T1) (peptide)
peptide: KLKLKMVVAW
modifications: here or on the partner: head-to-tail cyclic; two T1 linkers (NH2CH2CH2N(SO2Me)CH2COOH) join the strands
B4: cyclic III peptide 7 (KLKLK-T1-AVVSW-T1) (peptide)
peptide: KLKLKAVVSW
modifications: here or on the partner: head-to-tail cyclic; two T1 linkers (NH2CH2CH2N(SO2Me)CH2COOH) join the strands
B5: cyclic III peptide 5 (KLKLK-T1-MVASW-T1) (peptide)
peptide: KLKLKMVASW
modifications: here or on the partner: head-to-tail cyclic; two T1 linkers (NH2CH2CH2N(SO2Me)CH2COOH) join the strands

The test concerns the target integrins. Nature of the test: cell-based or functional assay.
B1 had an IC50 (µM), bioactivity of cyclic III peptide analogs of 57 µM.

Regarding B2, the IC50 (µM), bioactivity of cyclic III peptide analogs came to 6 µM.

Consider B3, for which the IC50 (µM), bioactivity of cyclic III peptide analogs worked out at 4 µM.

For B4, the IC50 (µM), bioactivity of cyclic III peptide analogs stood at 31 µM.

B5 registered an IC50 (µM), bioactivity of cyclic III peptide analogs of 19 µM.
